Laboratory results from patent US20160333095A1 (published 2016).
Residue numbers refer to the chain shown, from its start. Blank lines part the entries; values can stand above or below the binder they belong to.

Columns and labels:
cynomolgus CD3 [1] = target: T1, cynomolgus CD3 (UniProt Q95LI5 22-198); experiment: FACS binding, HSC-F cells
T1 chain: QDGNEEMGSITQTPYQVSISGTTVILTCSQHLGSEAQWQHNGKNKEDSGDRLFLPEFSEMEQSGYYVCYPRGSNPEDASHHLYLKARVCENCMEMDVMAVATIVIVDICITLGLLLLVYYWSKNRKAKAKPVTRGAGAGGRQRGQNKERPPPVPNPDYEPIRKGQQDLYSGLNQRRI

cynomolgus CD3 [2] = target: T1, cynomolgus CD3; experiment: FACS binding, HSC-F cells; Fig 2B
human CD3 [3] = target: T2, human CD3 (UniProt P07766 22-207); experiment: FACS binding, Jurkat cells
human CD3 [4] = target: T2, human CD3; experiment: FACS binding, Jurkat cells; Fig 1B
cynomolgus CD3 [5] = target: T1, cynomolgus CD3; experiment: FACS binding, HSC-F cells; Fig 2A
cynomolgus CD3 [6] = target: T1, cynomolgus CD3; experiment: FACS binding, HSC-F cells
human CD3 [7] = target: T2, human CD3; experiment: FACS binding, Jurkat cells; Fig 1A
human CD3 [8] = target: T2, human CD3; experiment: FACS binding, Jurkat cells; remark: listed apart in the source
cynomolgus CD3 [9] = target: T1, cynomolgus CD3; experiment: FACS binding, HSC-F cells; second row printed H4L1; graph legend indicates H4L3

T2 sequence (P07766 22-207): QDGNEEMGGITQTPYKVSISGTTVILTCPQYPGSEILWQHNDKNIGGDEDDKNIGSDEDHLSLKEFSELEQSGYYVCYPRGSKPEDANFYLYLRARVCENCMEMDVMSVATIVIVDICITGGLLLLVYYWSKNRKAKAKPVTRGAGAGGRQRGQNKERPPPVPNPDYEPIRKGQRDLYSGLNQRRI

EC50 (cynomolgus CD3 [1]): 0.28 µg/mL
EC50 (cynomolgus CD3 [2]): 3.54 µg/mL
EC50 (human CD3 [3]): 0.64 µg/mL
EC50 (human CD3 [4]): 0.28 µg/mL
B1: bsIgG1 huCD3-H3L1×HER2-LFLEDA (bispecific antibody, V domains shown)
VH 1: EVKLVESGGGLVKPGRSLRLSCAASGFTFNTYAMNWVRQAPGKGLEWVARIRSKYNNYATYYADSVKDRFTISRDDSKSILYLQMNSLKTEDTAMYYCVRHGNFGNSYVSWFAYWGQGTLVTVSS
VL 1: not shown
VH 2: QVQLVQSGAEVKKPGASVKVSCKASGYTFTNYGISWVRQAPGQGLEWMGWLSAYSGNTIYAQKLQGRVTMTTDTSTTTAYMELRSLRSDDTAVYYCARDRIVVRPDYFDYWGQGTLVTVSS
VL 2: EIVLTQSPATLSLSPGERATLSCRASQSVSSYLAWYQQKPGQAPRLLIYDASNRATGIPARFSGSGSGTDFTLTISSLEPEDFAVYYCQQRSNWPRTFGQGTKVEIK

EC50 (cynomolgus CD3 [5]): 0.3 µg/mL
EC50 (cynomolgus CD3 [6]): 0.06 µg/mL
EC50 (cynomolgus CD3 [1]): 0.06 µg/mL
EC50 (cynomolgus CD3 [2]): 0.47 µg/mL
EC50 (human CD3 [3]): 0.18 µg/mL
EC50 (human CD3 [4]): 0.07 µg/mL
EC50 (human CD3 [7]): 0.08 µg/mL
EC50 (human CD3 [8]): 0.27 µg/mL
B2: IgG1-CD3-LFLEDA (antibody, V domains shown)
VH: B1 VH 1 with V5L, K13Q, G15K, R16G, R19K, K78Q, S87N, S125A
VL: QAVVTQESALTTSPGETVTLTCRSSTGAVTTSNYANWVQEKPDHLFTGLIGGTNKRAPGVPARFSGSLIGDKAALTITGAQTEDEAIYFCALWYSNLWVFGGGTKLTVL

EC50 (human CD3 [3]): 0.59 µg/mL
EC50 (cynomolgus CD3 [9]): 0.24 µg/mL
B3: bsIgG1-huCD3-H4L3×HER2-LFLEDA (bispecific antibody, V domains shown)
VH 1: B1 VH 1 with L120M
VL 1: QAVVTQEPSFSVSPGGTVTLTCRSSTGAVTTSNYANWVQQTPGQAFRGLIGGTNKRAPGVPARFSGSILGNKAALTITGAQADDESDYYCALWYSNLWVFGGGTKLTVL
VH 2: B1 VH 2
VL 2: B1 VL 2
